According to PMC12429950, “A chimeric RNA consisting of siRNA and aptamer for inhibiting dengue virus replication”:

Tests used:
[1] = target: T1, DENV-1 VLP (envelope protein) (Dengue virus type 1, UniProt P17763 281-775); test: SPR; response lower than DENV-Apt_41; details: protein: commercial; predicted stem-loop
[2] = target: T1, DENV-1 VLP (envelope protein); test: SPR; details: protein: commercial; predicted stem-loop

T1 sequence (P17763 281-775): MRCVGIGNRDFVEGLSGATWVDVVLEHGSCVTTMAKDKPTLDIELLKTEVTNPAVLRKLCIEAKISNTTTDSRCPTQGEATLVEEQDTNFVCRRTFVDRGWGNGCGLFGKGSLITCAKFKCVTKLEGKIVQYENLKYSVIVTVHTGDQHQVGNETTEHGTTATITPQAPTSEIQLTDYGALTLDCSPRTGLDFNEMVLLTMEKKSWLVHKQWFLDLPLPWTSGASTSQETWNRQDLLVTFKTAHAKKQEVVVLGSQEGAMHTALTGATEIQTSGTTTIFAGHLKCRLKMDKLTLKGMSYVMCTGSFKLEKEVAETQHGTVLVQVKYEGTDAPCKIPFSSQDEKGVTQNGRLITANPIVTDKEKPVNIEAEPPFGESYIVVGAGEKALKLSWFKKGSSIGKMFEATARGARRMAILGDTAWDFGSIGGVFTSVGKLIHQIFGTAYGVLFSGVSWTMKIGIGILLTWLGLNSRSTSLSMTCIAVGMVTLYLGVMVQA

Row | Binder | binding result [1] | binding result [2]
1 | DENV-Apt (XNA, 2'-fluoro C and U) RNA: GGGUCUUGUUUCUUCUCUGUGUGUAAUUUGUUUUACUGGGGGGUUAACCUAACAAGUGCACACUCGUCACACACUCACAUC | binds | 
2 | GGGUAAUUUGUUUUACUGGGGGGUUAACCUAACAAGUGCCC (XNA, 2'-fluoro C and U) [DENV-Apt_41] |  | binds
